This is an account of results in US20110045003A1 (SYNOVEX, published 2011).

Assay [1] has as its target T1, BSA coupled 37-mer Cad-11 peptide encompassing the Cad-11 immunogen (UniProt P55287 54-90, limits assumed, linked to BSA).
T1 construct: domain: 37-mer peptide encompassing the Cad-11 immunogen; also called Cad-11 antigen; Cad-11 peptide immunogen
T1 peptide (looked up): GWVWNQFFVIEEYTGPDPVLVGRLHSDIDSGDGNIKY
Put plainly: ELISA on BSA coupled 37-mer cadherin peptides, coat 500 ng/ml. Here is the method:
A dilution series from 5 μg/ml to 8 ng/ml in a volume of 100 μl/well of each the humanized anti-Cad-11 antibodies were incubated in the peptide coated wells and incubated at 22° C. for 1 hr. Antibody solution was removed from the wells and the plate washed twice with 200 μl/well of 0.05% Tween-PBS at 22° C. and blotted dry. The goat-anti mouse IgG (Pierce # 31432) was added to each well to plate at a 1:1000 dilution, 100 μl/well and incubate at 22° C. for 30 min. The secondary antibody solution was removed and the plate washed twice with 200 μl/well of 0.05% Tween-PBS at 22° C. and blotted dry. The reaction was developed by adding 100 μl/well tetramethylbenzidine (TMB) reagent IgG (Pierce # 34022, 1 step Turbo TMB-ELISA) to plate and developed at 22° C. for 5 min.
The greatest cross reactivity was seen against Cad-8. […] This assay was repeated with the Cad-11, Cad-8 and Cad-18 antigens with a lower antigen coat concentration of 50 ng/ml and a wider dilution series of the SDP051 antibody (FIG. 41B). […] An EC50 for Cad-18 could not be established due to the low level of binding observed.
On the technique in general: ELISA stands for enzyme-linked immunosorbent assay.

The target of assay [2] is T2, recombinant his-tagged human Cad-11 (R&D Systems) (human, UniProt P55287 54-617).
T2 construct: also called rhCad-11; recombinant human Cad-11; not shown: his tag
T2 sequence: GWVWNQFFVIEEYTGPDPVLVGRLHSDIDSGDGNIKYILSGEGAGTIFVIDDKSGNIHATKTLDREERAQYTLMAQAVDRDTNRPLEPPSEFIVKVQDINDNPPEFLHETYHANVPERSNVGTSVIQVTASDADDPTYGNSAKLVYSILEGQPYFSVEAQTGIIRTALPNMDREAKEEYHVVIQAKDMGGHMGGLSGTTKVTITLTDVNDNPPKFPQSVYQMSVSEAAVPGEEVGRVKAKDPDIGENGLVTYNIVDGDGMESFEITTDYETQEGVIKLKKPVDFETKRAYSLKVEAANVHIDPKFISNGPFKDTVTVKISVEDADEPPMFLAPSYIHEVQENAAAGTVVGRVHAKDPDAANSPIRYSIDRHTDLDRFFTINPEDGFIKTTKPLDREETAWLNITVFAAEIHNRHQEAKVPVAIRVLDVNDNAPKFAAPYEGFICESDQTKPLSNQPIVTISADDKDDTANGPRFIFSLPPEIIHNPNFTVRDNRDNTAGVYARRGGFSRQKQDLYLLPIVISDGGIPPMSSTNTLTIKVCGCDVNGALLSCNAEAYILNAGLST
Put plainly: SPR, rhCad-11 immobilized, SDP051 as analyte, 2 state reaction model. Here is the method:
To determine the affinity of SDP051 for recombinant his-tagged human Cad-11, rhCad-11 (R&D Systems) was immobilized to the chip at a single concentration, high resolution kinetics were determined for SDP051, and a 2-state reaction binding model was successfully fitted to the kinetic data.
Kinetic data were obtained at a flow rate of 40 μL/min to minimize any potential mass transfer effects. An analyte concentration series ranging from 12.5 nM to 0.195 nM was prepared by serial dilution. Two repeats of the blank (no mAb) and the 3.125 nM (first and last cycle) concentration of the analyte were programmed into the kinetic runs in order to check the stability of both the surface and analyte over the kinetic cycles. The SDP051 was injected over the Fcs for 360 seconds, long enough to observe the curvature in association phase.
As rhCad-11 is homodimeric and therefore contained two identical binding epitopes, it is likely that individual mAb molecules become bound sequentially through a first binding site and then both binding sites.
(In general: Surface plasmon resonance follows binding to a sensor surface in real time, without labels.)

For assay [3], the target named is T1, BSA coupled 37-mer Cad-11 peptide …. Put plainly: ELISA on BSA coupled 37-mer peptide, coat 50 ng/ml; Cad-11 antigen, coat 50 ng/ml.
Assay [4] deals with T3, Peptide 4 (first 33 amino acids, G1-G33, of the human Cad-11 EC1 domain) (human).
T3 construct: also called PEP4; Peptide 4 immunogen
T3 peptide: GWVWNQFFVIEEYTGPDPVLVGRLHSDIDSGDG
In words: ELISA on biotinylated EC1 peptides. Here is the method: The specificity of H1M1 and H14 anti-Cad-11 antibodies was tested further using an ELISA against the first 33 amino acids of the EC1 domains of Cad-11, Cad-7, Cad-8, Cad-20, Cad-24, Cad-9, Cad-18, and MN-Cad. Peptides corresponding to the region of Cad-7, Cad-8, Cad-20, Cad-24, Cad-9, Cad-18, MN-Cad that overlapped with the G1-G33 region of the Cad-11 EC1 domain were synthesized and conjugated to biotin. 100 μl of a 30 ng/ml solution of each of these peptides in PBS-Tween (0.05%) were incubated in each well of a 96-well Netravidin plate for 2-3 hrs at 4° C. and then washed twice with PBS-Tween (0.05%). Various concentrations of the anti-Cad-11 antibody were incubated in each well for 1 hr at 22° C. and then washed twice with PBS-Tween (0.05%). 100 μl of a 1/1000 dilution of a goat anti-mouse IgG secondary antibody were added to each well, incubated for 30 min at 22° C., and then washed twice with PBS-Tween (0.05%). 100 μl/well of room temperature TMB (3,3′,5,5′-tetramethylbenzidine) reagent was added to each well and color was allowed to develop for 5 min at 22° C.

Where a chain is given by its changes, count along the chain named. Numbers in names are those of the source. Where only a bound is given, the exact number is not on record here.

B1: humanized anti-Cad-11 EC1 antibody SDP051 (Vκ1/VH5) (antibody, IgG4, V domains shown)
VH: EVQLVQSGAEVKKPGASVKVSCKASGYSFTGYFMNWVRQAPGQGLEWIGRINPYTGDTFYNQKFKGRVTITVDKSTSTAYMELSSLRSEDTAVYYCGRLGSRYWYFDVWGQGTTVTVSS
VL: DVLMTQTPLSSPVTLGQPASISCRSSQSIIHSNGNTYLEWYLQKPGQSPQLLIYKVSNRFSGVPDRFTGSGSGTDFTLKISRVEAEDVGVYYCFQGSHVPWTFGQGTKLEIK
notes: humanized IgG4 (S241P), kappa
With B1, in assay [1], the “fold greater binding to the Cad-11 antigen than to the related antigens from the other cadherins” value was more than 100 fold. Moreover, the Kd (usually the free concentration of one partner at which half of the binding sites on the other are occupied at equilibrium, for simple one-to-one binding) in assay [2] came out at 0.379 nM. In assay [3], the EC50 – broadly, the midpoint of the concentration-response curve – turned out to be 6.8 ng/mL.

B2: murine H1M1 monoclonal anti-Cad-11 EC1 antibody (hybridoma H1M1, ATCC PTA-9699) (antibody, V domains shown)
VH: EVQLQQSGPELVKPGASVKISCKASGYSFTGYFMNWVKQSHGKSLEWIGRINPYTGDTFYNQKFKGKATLTVDKSSSTAHMELLSLSSEDSAVYYCGRLGSRYWYFDVWGAGTTVTVSS
VL: B1 VL with S11L, T14S, Q17D, P18Q, Q50K, V88L, Q105G
modifications: Biotinylated when used as the labelled competitor in Example 14; the letters are unchanged.
notes: murine antibody raised against Peptide 4; also called SYN0012; SYN0012/H1M1
With B2, in assay [4], the “fold higher binding to Cad-11 than to any of the other cadherins tested” value was more than 100 fold.
